Entries after “also recorded” stand apart in the source; their conditions may differ.
B1: GPVI-CD39: fusion protein of extracellular domain of platelet glycoprotein VI, Fc of human IgG2 and extracellular domain of human CD39, 15 amino acid linker (SEQ ID NO: 1) (protein, listed as Homo sapiens)
chain: QSGPLPKPSLQALPSSLVPLEKPVTLRCQGPPGVDLYRLEKLSSSRYQDQAVLFIPAMKRSLAGRYRCSYQNGSLWSLPSDQLELVATGVFAKPSLSAQPGPAVSSGGDVTLQCQTRYGFDQFALYKEGDPAPYKNPERWYRASFPIITVTAAHSGTYRCYSFSSRDPYLWSAPSDPLELVVTGTSVTPSRLPTEPPSSVAEFSEATAELTVSFTNKVFTTETSRSITTSPKESDSPAGPARQYYTKGNGGRVECPPCPAPPVAGPSVFLFPPKPKDTLMISRTPEVTCVVVDVSHEDPEVQFNWYVDGVEVHNAKTKPREEQFNSTFRVVSVLTVVHQDWLNGKEYKCKVSNKGLPAPIEKTISKTKGQPREPQVYTLPPSREEMTKNQVSLTCLVKGFYPSDIAVEWESNGQPENNYKTTPPMLDSDGSFFLYSKLTVDKSRWQQGNVFSCSVMHEALHNHYTQKSLSLSPGKGGGGSGGGGSGGGGSTQNKALPENVKYGIVLDAGSSHTSLYIYKWPAEKENDTGVVHQVEECRVKGPGISKFVQKVNEIGIYLTDCMERAREVIPRSQHQETPVYLGATAGMRLLRMESEELADRVLDVVERSLSNYPFDFQGARIITGQEEGAYGWITINYLLGKFSQKTRWFSIVPYETNNQETFGALDLGGASTQVTFVPQNQTIESPDNALQFRLYGKDYNVYTHSFLCYGKDQALWQKLAKDIQVASNEILRDPCFHPGYKKVVNVSDLYKTPCTKRFEMTLPFQQFEIQGIGNYQQCHQSILELFNTSYCPYSQCAFNGIFLPPLQGDFGAFSAFYFVMKFLNLTSEKVSQEKVTEMMKKFCAQPWEEIKTSYAGVKEKYLSEYCFSGTYILSLLLQGYHFTADSWEHIHFIGKIQGSDAGWTLGYMLNLTNMIPAEQPLSTPLSHST
B2: GPVI-Fc: dimeric soluble glycoprotein VI-Fc fusion protein (Revacept), Fc derived from human IgG1, in clinical investigation (protein)
chain: QSGPLPKPSLQALPSSLVPLEKPVTLRCQGPPGVDLYRLEKLSSSRYQDQAVLFIPAMKRSLAGRYRCSYQNGSLWSLPSDQLELVATGVFAKPSLSAQPGPAVSSGGDVTLQCQTRYGFDQFALYKEGDPAPYKNPERWYRASFPIITVTAAHSGTYRCYSFSSRDPYLWSAPSDPLELVVTGTSVTPSRLPTEPPSPVAEFSEATAELTVSFTNEVFTTETSRSITASPKESDSPAGPARQYYTK
modifications: left off: a dimerising Fc or GST
notes: dimeric soluble glycoprotein VI-Fc fusion protein (Revacept), Fc derived from human IgG1, in clinical investigation

What was measured:
[1] = tested on: Citrated blood of healthy donors; assay: In vitro closure time with Innovance PFA-200; assay type: cell-based; conditions: human blood ex vivo; for PFA-200 closure time, COL/ADP cartridges / PFA-200 closure time, COL/EPI cartridges: GPVI-CD39 21.7 to 217 nmol/L, versus PBS buffer control
Description: (§1) Informed consent was obtained as approved by the local Ethics Committee. An overall number of 58 healthy volunteers was included into the study: blood samples from 39 subjects were taken for in vitro experiments using vascular agonists, and blood samples from 19 subjects for experiments involving human plaque material.
Citrated blood of healthy donors was mixed with antagonist in concentrations indicated in the figures, and added to Dade® PFA COL/EPI, Dade® PFA COL/ADP, or Innovance® PFA P2Y test cartridges (Siemens Healthcare, Erlangen, Germany). Blood was aspirated under high shear conditions (>5000/s) through a capillary onto a membrane with a small aperture coated with substances which activate platelets and lead to closure of this aperture. The time until closure of this aperture is monitored and expressed as in vitro closure time with a maximum closure time of 300 s.

[2] = Pharmacokinetic analysis: protein concentration in plasma by Fc-specific sandwich ELISA; assay type: in vivo, mouse; conditions: mice, 4 mg/kg IV
Method: (§2) ale and female wild type C57BL/6J mice of the age of 12-22 weeks were used in this small scale study. An overall number of 9 mice were investigated. GPVI-CD39 or solCD39 were applied in a volume of 5 ml/kg into the right tail vein. At time points indicated in the figure blood sampling was performed by incision of the left tail vein using 25 μl heparinized capillaries. Blood samples were recovered by centrifugation at 2400×g for 10 min. The upper plasma phase was transferred to fresh tubes and stored frozen at −20° C.
The concentration of GPVI-CD39 or Fc control protein in plasma samples was determined by Fc-specific sandwich ELISA. Wells of a MaxiSorp 96-well plate (Thermo Fisher Scientific, Waltham, Mass.) were coated with 0.1 μg/well goat-anti-human Fcγ antibody. Wells were washed three times with phosphate-buffered saline and tween-20 (PBST) between incubations. After blocking with 3% skimmed milk in PBST wells were incubated for 1 h with 50 μl of plasma from GPVI-CD39 treated (1:200) or Fc (1:500) treated mice diluted in PBST. Wells were incubated for 1 h with 100 μl of 80 ng/ml goat-anti-human IgG (H+L)-POD detection antibody. POD activity was visualized using 100 μl of Ultra TMB-ELISA substrate (Thermo Fisher Scientific, Waltham, Mass.) and signal intensities were read with a Tecan Infinite F200 ELISA reader.

platelets = assay: Plaque-induced platelet aggregation under flow; assay type: cell-based; conditions: 150 nM GPVI-CD39
C57BL/6J mice = assay: In vivo tail bleeding time in mice; parameters: species or system mouse; conditions: 15 min after IV 13 nmol/kg (4 mg/kg GPVI-CD39, 2 mg/kg GPVI-Fc), versus vehicle or buffer
Method: Test or control substances were applied into the tail vein of C57BL/6J mice. Animals were anesthetized by intraperitoneal injection of 0.5 mg/kg medetomidine, 5 mg/kg midazolame, and 0.05 mg/kg fentanyl. 10 min after protein delivery a blood sample of 20 μl was drawn for analysis of recombinant protein content and ADPase activity using a heparinized capillary. 15 min after protein application the distal 2 mm of the tail were cut off, the tail was immediately immersed into pre-warmed PBS (37° C.) buffer and time-monitored until bleeding stopped for at least 30 s. […] Animals were sacrificed and a final blood sample stored for analysis.

[3] = ADPase activity of purified protein (Malachite Green phosphate detection); assay type: biochemical; conditions: purified protein at various concentrations, 200 μM ADP, 37° C., pH 7.5
Method: (§3) Various concentrations of GPVI-CD39 or solCD39 protein or plasma samples from the pharmacokinetic study diluted 1:500-1:2000 in assay buffer were incubated in 25 mM Tris-HCl, 5 mM CaCl2, pH 7.5 with 200 μM ADP in a total volume of 100 μl for 30 min or 5 min at 37° C. Enzymatically released Pi was detected using the Malachite Green Phosphate Detection Kit (R&D Systems, Minneapolis, Minn.) according to the supplier's manual. A serial dilution of Pi standard was analyzed in parallel which facilitates quantification of released Pi. Absorbance was measured at a wave length of 630 nm using a Tecan Infinite 200 ELISA reader. Enzymatic activity of purified protein was calculated taking incubation time and protein amount into account and expressed as Units per mg of protein.

human platelets = assay: Platelet aggregation in human blood under static conditions (Multiplate impedance aggregometry); assay type: cell-based; conditions: for inhibition of ADP-induced platelet aggregation: 6.5 μM ADP, equimolar concentrations; for inhibition of ADP-induced platelet aggregation / inhibition of collagen-induced platelet aggregation: human blood; for inhibition of platelet aggregation triggered by human plaque material: same concentrations
Method: as §1
The effect of GPVI-CD39 and control proteins on platelet aggregation was analyzed using the Multiplate® device (25). 1:1 diluted hirudin-anticoagulated blood was pre-incubated with antagonist for 3 min in the test cell without stirring to avoid platelet pre-activation (26). Agonist was added and samples were incubated for 6 min at 37° C. with stirring. The following agonists were used: 6.5 μM ADP, 12 μg/ml collagen isolated from rabbit aorta, or 103 μg/ml collagen type I secreted by human fibroblasts (VitroCol®, Advanced BioMatrix, San Diego, Calif.). Platelet aggregation was measured in arbitrary units over the time period (arbitrary units (AU)*min) (cumulative aggregation values).

C57BL/6J wild type mice = assay: In vivo thrombus formation after FeCl3 injury in carotid arteries; parameters: species or system mouse
Method: For examination of arterial thrombus formation in vivo, 6-8 weeks old C57BL/6J wild type mice were anesthetized by injection of midazolame (5 mg/kg body weight), medetomidine (0.5 mg/kg body weight) and fentanyl (0.05 mg/kg body weight). In the ferric chloride model, an overall number of 21 mice was studied.
The common carotid artery was dissected free and the mice were injected intravenously 30 minutes before carotid injury with GPVI-CD39 (3 mg/kg body weight) or its control and with GP1bα-488 (Emfret Analytics, Eibelstadt, Germany) for platelet visualization. The carotid was exteriorized and injured by topical application of a filter paper saturated with 15% ferric chloride for 1 minute. Thrombus formation in arteries was monitored for 20 minutes or until complete occlusion (stop of blood flow for >1 min). Digital films and images were recorded with a Nikon eclipse intravital microscope and analysed offline.

[4] = ADPase activity in plasma samples from the pharmacokinetic study; assay type: in vivo, mouse; conditions: mice, IV 4 mg/kg GPVI-CD39 or 2 mg/kg solCD39, up to 48 h
Method: as §3, §2

[5] = 103 μg/ml collagen secreted by human fibroblasts (VitroCol)
[6] = human plaque material 333 μg/ml

Row | Molecule | PFA-200 closure time, P2Y cartridges ([1]; 1.9 μM) | PFA-200 closure time, COL/ADP cartridges [1] | PFA-200 closure time, COL/EPI cartridges [1] | plasma concentration time course [2] | mean plasma concentration ([2]; 5 min after application) [µg/mL] | plasma concentration ([2]; after 48 h) [µg/mL] | inhibition of plaque-induced platelet aggregation (platelets) [%] | tail bleeding time (C57BL/6J mice) | mean ADPase activity (specific activity) [3] [U/mg] | inhibition of ADP-induced platelet aggregation (human platelets) | inhibition of collagen-induced platelet aggregation (human platelets; 12 μg/ml collagen isolated from rabbit aorta) | inhibition of collagen-induced platelet aggregation (human platelets; [5]) | IC50 (human platelets; human plaque material 333 μg/ml, approximate, read-out: IC50 of inhibition of platelet aggregation triggered by human plaque material) [µM] | inhibition of platelet aggregation triggered by human plaque material (human platelets; [6]) | time to vessel occlusion (C57BL/6J wild type mice; 15% ferric chloride carotid injury, 3 mg/kg (10 nmol/kg) IV) [s] | effect on ferric chloride-induced thrombus formation / occlusion time (C57BL/6J wild type mice; 15% ferric chloride, 10 nmol/kg IV (3 mg/kg GPVI-CD39, 1.5 mg/kg GPVI-Fc), versus vehicle) | PFA-200 closure time, P2Y cartridges ([1]; 47 nmol/L) | PFA-200 closure time, P2Y cartridges ([1]; 217 nmol/L) | ADPase activity in plasma over time [4]
1 | CCCSc1nc(N[C@@H]2C[C@H]2c2ccc(F)c(F)c2)c2nnn([C@@H]3C[C@H](OCCO)[C@@H](O)[C@H]3O)c2n1 [ticagrelor, reference compound] | prolongations | No significant differences between groups |  |  |  |  |  |  |  |  |  |  |  |  |  |  |  |  | 
2 | CC(=O)Oc1ccccc1C(=O)O [ASA, acetyl salicylic acid, reference compound] |  | No significant differences between groups | inhibited the closure of the aperture completely; also recorded: significantly (p=0.04) prolonged |  |  |  |  |  |  |  |  |  |  |  |  |  |  |  | 
3 | B1 |  | no significant increase of closure times; also recorded: No significant differences between groups | no significant increase of closure times | decreased rapidly in the course of two hours | 95 | 6 | 81 | no differences; also recorded: no effect on systemic bleeding times | 11.2±4.0 | Effective inhibition; also recorded: markedly reduces ADP-induced platelet aggregation | highly significant, dose-dependent inhibition; also recorded: reduces platelet aggregation more strongly than GPVI-Fc alone | inhibited platelet aggregation significantly; also recorded: reduces platelet aggregation more strongly than GPVI-Fc alone | ~0.03 | dose-dependent inhibition | 1083 | fully effective in inhibiting arterial thrombosis; also recorded: strongly delayed ferric chloride-induced thrombus formation | statistically significant increase in closure time | statistically significant increase in closure time | diminished rapidly during the first 60 min but was still detectable at very low levels after 2 d
4 | B2 |  | No significant differences between groups |  |  |  |  |  | no differences |  | no inhibitory effect |  | minor inhibition |  | markedly and significantly less effective than GPVI-CD39 |  |  |  |  | 

— US11072643B2, “Fusion protein” (ADVANCECOR GMBH, priority 2017, dated 2021)
